Data on 15 proteins can be found in the PETadex activity labels.

To fix the notation:
B1: unnamed (protein)
chain: MKTTKGTKIALIAFTLSFSLSAFSGGGGGGNNNGGLPAPNTCTSNCGFETGPNPNLNFVRASRGPLPTRTTVVSRSVDGFGGGTIYYPSNASEEMAAIAVSPGFTATQSSIDWWGPILASHGFVVITIDTNSRFDQPISRGRQLDSALSYLISENSRRNSPISGLVDETRLATMGHSMGGGGALRSASRNRLSAAMPMAPFNVGNNDFNQIRVPTMIMACENDVVAPVGIHARPFYNRIPGSTDKVLLEFNNGPHNCANGESSGNRPLLSTYGVSWMKRFLDKDRRYNQFLCGPNHVANNGISDFRSTCTF
B2: unnamed (protein)
chain: MRARTRLTALAAGLTLALGAPAATAATADQAQPAASASVEHGPAPTKESIGVDGPYKVASKKAPIDLKRSFYGGTIYYPADAGKGETYGTVVTMPGFLEPGAVMDLVAKRLASHGFVVMRAEALTPFSIPLVRAQAVLSAQKVLHADADLAPIMDTERTALVGHSMGGGGVLHAAAMSEQDAVIPIHPWAQTIFPLVKEPTLTIGGLLDNVAPMVEYTLPIYASIGSETKGLFTDLAGTHWAGLVDNKVIQGRILSFVKLHVDGDTRYEQFVCAPAEKGFTYKSPC
B3: unnamed (protein)
chain: MNSNRTVPLRRAAIAVVLALTLVACDWKGPAPTDASLTAASGPFAVSTLAVPSSAGFGGGTIYYPSNVDGPFAAISVSPGFFSTQSAIAAWGPRLASHGFVVITINTTSLLADPTQRSTEQRQALAHVVNQGNTASSPIFGLVDGNRTGVAGHSMGGGASLISAQADPSIDAAMPFAPWNLGTNFAGITSPTLVLACQADGVAAPNSMASPMYNSIPATTKKMYLSVTNGDHSCANAPTGGNNDVGRYGVAFFKRWLDSDTRYDPWMCGASAPTAGGALNEVRSTCPF
B4: unnamed (protein)
chain: MRPCSRSTNTTPPLRTRSRPMTALIALATTIGLALTLLTATAAPAAAADLLSQGKPVTSSSTENTSTPASAAVDGNTGTRWSSTFSDPQWLTVDLGATATISQVVLRWEAAYARSFRIQTSDNGTSWTTIHSTTTSTGGAQTLDVNGSGRYIRLYGTQRGTAYGYSLWEFQVYGSGEGTPPGSGIPDPTTVSLEATNGPLTTATYTVPSPSGYGSGTVTYPTASGSYPGIVLMPGYQGTQQNLQWLAPRLASWGFVVINVGTNTLTDDPESRGRQITAAGTQLLALGDAPGNPLSGKLNGTLGATGHSMGGGGVMAALRDDSRFRAGVPTAPYHPNGNFSGVTEPTFFLTCQSDAVAHGDRYAVPWYTSMSQAEKLYIEVPGDHLCPMTGYGNKAKQGKWMVSFFSLWLRADTRFSPFLCGPARDADKNDTSLVTRWMDTCQF
B5: unnamed (protein)
chain: MPKSDRSTPQPARSQHGGFAKLSLGLTALLMSVLVHAQSNPFERGPEPTVASLEAAAGPYAVQTTQVGKGNSNDYARGTVYYPVANDGQFALIAIVPGYTERQAGVSWWGSRLASHGFVVVTVDTNAPGEFPPSRARALKDALATVVKLSQTSSSPFFGKIDASRQGIMGHSMGGGATLELARSNSKLKAAIPFAPWNSNSKVYTRVKVPTLIISCQRDAVAPVNSHANKFYDSFSATLDKALLEVTGGDHYCASTSASAANKAVVGKYGVAWMKRFLDNDTRYSQFLCGAPHQADLAGPIISSYKDSCPY
B6: unnamed (protein)
chain: MKGIRTRVLPVGKKNTGVKMRCAWRRRVSAFTQSAILHNTHSQETPVMSDPRLSVARLAWAGILLMGAASATCQAQTNPFERGPDPTSSLLNASAGPLATASVAVASPTGFGGGTIYYPTAANTYGVIALCPGFTGTQSSVAWLGSRLASHGFVVVTMNTNSSLDFPASRATQLMAALNHVINNSNATVKSRIDPNRRAVGGHSMGGGGSLIAAQNNPSLKGAYPLTPWNTSTNFSGVGVPTMIIGADGDTTAPVGSHARPFYASLPAATLKAYGELNGATHSTPTSTNTPTGRYAVSWMKRFVDTDTRYSPFLCGAEHTSYATATVFDRYQQNCPY
B7: unnamed (protein)
chain: MERGNHRAKWVIGLGLLALAAAAQSQTNPFQKGPDPTSTLLNATSGPFSVATSSVSSLAAQGFGGGTIYYPSTTGTYAVLAISPGFTATQSSIAWLGRRIATHGFVVITIDTNSTLDQPPSRATQLIAALRHVTDLSNATVRSRVDASRRGVAGHSMGGGGSLIAARDNPSLKAAVPLTAWSTTKVFSTVQVPTLVVGAENDTIASVSSHSIPFYTSLSSSLDKAYAELNNASHLAPNTTNTPIGRYSVAWVKRFMDNDTRYTPFLCGAPHQSYATSAVFSDYRSTCPY
B8: unnamed (protein)
chain: MKLTFVPLAITVVATLTCTSVVAKINLVESQVIQISELKKPAESLIDKSAQTAALPIPPSIATCIDDSAISADNLSQAKDNGPFAISSKDIPRQSAIGFGGGTIHYPINASGCGLLAAIAVVPGFVSYESSIKWLGPRLAAWGFVVITINTDSIYDNPDSRARQLSAALDTIISDDNVGSIVDPNRLGAIGWSMGGGGALKLATVRDEVRAIVPLAPYHDKDYGEVSTPTLVIACQFDRIARNKKYGSMFYDKAIGPKMKVELNNASHFCPSYRFNEILLSKPIIAWMQRYINEDERFDKLLCANETYSENPRFSSYDYANCS
B9: unnamed (protein)
chain: MKTTQFLRTAVCTFTLSFSLTAFSGGGGGSSDNDGNLPTPNSCTSNCGFEIGPNPNLNFVRASQGPLPVSTTTVASSVDGFGGGTIYYPSNISDEVAAIAISPGFTARQSSIAWWGPILASHGFVVITIDTNSRFDQPDSRGRQLDSSLSYLINESNRSNSPISGRVDDSRLAAMGHSMGGGGSLRSAARNRLSAAMPLAPFRVGGNDFDQIRVPTMIMACENDVVAPVGVHARPFYNRIPGSTDKVLLEINNGSHSCANGESSGNRPLLSTYGVSWMKRFLDKDRRYNQFLCGPNHEANSQISDFRDTCNF
B10: unnamed (protein)
chain: MRPPCCSAGATWLSRSRSRAAVVLTTLVATVSALLIVSAAPALAAPVPAPTTASLEATNGPLATASYTVPNPSGYGSGTITYPTGSGSYPGVVLMPGYQGTQQNLRWLAPRLASWGFVVVNVGTRTLTDDPESRGDQISAAGTQLLAFSNAVGNPITGKVNGTLGAAGHSMGGGGTMVALRDDARFRAGVPLAPYYQNGNFSSVAKPTFSLTCRSDVAAPGNTYALPWYNSMTRAEKLYVEVPGDHLCPMTGYGNKAKQGKWIVSFFSRWLRGDTRFSPFLCGAEREADRNNAALVTRWMDTCPY
B11: unnamed (protein)
chain: MLLVSANALSYTPAPVANPAPIAAPAPCQDCDFNRGPNPTNSSVERLGPYSVATQRVSSSVSGFGGGTIHYPTNIAGKVGAIAVVPGFVSPESSIRWWGPQLASHGFVVITIATNSIFDQPSSRERQLGRALDYVINQTNSSGTAISGLVDTNRLGAMGWSMGGGGSLRLANGGRLSAVIPLAPWNEGASGFSQLTTPTLVVACENDLIAPVRVHASPFYNVIPNTTDKAFLEVNNGSHSCANGGGVNGGLLSKYGVSWMKRFIDEDTRYQQFLCGPNHSANPAISEYRDTCNY
B12: unnamed (protein)
chain: MLGVMGWSMGGGGTLITVDDHPELKAAITLCAWNPGQTYRQNQVPTLLFAGTADVLAGGQSQGFYTSIPETTPKMLFEVQGADHFFANTPEGASGQCGKYGTAWLKVFLVGDECYRPFLLEPPSGTSDFRTNLE
B13: unnamed (protein)
chain: MPSADEPDAGTAPPPEPGSNHWERGPEPTAESASMPGPYQVESLTAELPDRVEYLSQTLWYPTDAEPPFAGFAIVPGFVSPEGSIAEWGPFLASHGIVVLTIGTNTGGDLPDVRALALAAAVEVLKGEHTRSGSPLEGSMDTDRMAVGGWSMGGGGTLLAIAADPSLKAGIGLTPWHIGALPFTEISVPTLMFAGTADVLAGGMSQGFYDAIPASTPKTLFEILGADHFYSNNPLLPNIEVGRYGLSWLKVFLEGDERYRQFLSVEPMGASDFRTTAP
B14: unnamed (protein)
chain: MASRQSKTRLTRRAKLTALAAATLLSFAAQAQTVIFSENFGSGLGQFTTSGTVSTSSGAAVIQGCYNCTDGAIVSKSISTVGYTGLKLSYDRSTTGLDSGEYGVSAYLVSGGAWTAIENITSSSGRVTLTLPAAVENQASVQLRFRVSSSLSTETLTVDNVVLEGTSASGGGGGGAGYEKGPNPTNAALEASAGPFTVATKAVSASSASGYGGGTIYYPTNVTGTLGAVVVIPGYTAYQSSVSWWGSRLASHGFVVMTIDTNSIYDLPPARATQLMAAVNQLKVFNATAGHVIQGKIDTTRMGIMGWSYGGGGTLIAARDNPSLKAAIPFAPKTTTGTDFSGITMPTLIIGCESDSTAPVSSWSIPFYNSIPAAVKKAYLEVNNGDHFCPTTSGPSSVKPILGKYGVSWMKRWLDNDTRYSTFLCGSPHTTDLGNTAVISEYRDNCPY
B15: unnamed (protein)
chain: MKKNIFKKACLSALVIAFSLSAHSGGGGGDDGGSDQLPLPDSCNSNCGYEVGPNPTLSALEATQGPLSVSASTVSSSVDGFGGGTIYYPNNASQELATIAVAPGFTNTQSAIQWWGPLLASHGYVVITIDTNGRFDNPGSRSLQLDAALSYLISEGNRSSSDISGLVDENRLATMGFSMGGGGTLISASRNRLSAAVPMAPWNTGGNDFDAIGVPTLIFACEDDSTARINSHASPFYNSIPSSTDKAYMEINNGPHNCANGNNGNGNDALLSTYGVSWMKRFLDKDSRYDQFLCGPNHVANSKINEYRDTCNY

Substrate in the data set: BHET
The conditions noted are these: 120 h.
In the case of B1, the plate clearing entry is reported as “not clears the plate”. With B2 the entry was “not clears the plate”; with B3, “not clears the plate”; with B4, “not clears the plate”. For the protein B5, the plate clearing result was “clears the plate (z > 3 vs empty vector)”.

For B6, the plate clearing entry is on record as “not clears the plate”.

With B7, the plate clearing entry was “not clears the plate”. As for B8, the plate clearing entry was “not clears the plate”. Regarding B9, the plate clearing result was “not clears the plate”. As for B10, the plate clearing result is on record as “not clears the plate”. B11: the plate clearing entry is “not clears the plate”. The result for B12 reads “not clears the plate”. On to B13, for which the plate clearing result is listed as “not clears the plate”. B14: the plate clearing entry is listed as “not clears the plate”.

B15: the plate clearing result was “not clears the plate”.
